Measurements taken from patent US20240101668A1 (WUGEN, published 2024).

Tests used:
[1] = target: T1, huCD33-G69-Fc recombinant protein (human, UniProt P20138 18-259); assay: BLI;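 note: scFvs from periplasmic extracts captured on biosensors via anti-V5 antibody, exposed to recombinant huCD33 variants for 2 min, 5 min dissociation, scored as binding, no binding or ambiguous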
T1 construct: extracellular domain; also called CD33 R69G
Description: (§1) Discovered scFvs were analyzed for binding to huCD33-R69-His or huCD33-G69-Fc recombinant proteins (for anti-CD33 scFvs; for CLL-1 scFvs, huCLL1-K244-Avi-Tev-His or huCLL1-Q244-Avi-Tev-His were used; for FLT3, huFLT3-T227-His or huFLT3-M227-Fc were used) using BLI on a ForteBio Octet HTX instrument. Streptavidin-coated biosensors were loaded with biotinylated anti-V5 tag monoclonal antibody for 5 min and were then quenched and blocked with 20 μM amine-PEG2-Biotin for 5 min. scFvs were captured on biosensors from scFv clone periplasmic extracts. huCD33 (or huCLL-1, or huFLT3) proteins were then associated with the captured scFvs for 2 minutes, followed by dissociation with buffer (1×HBST [10 mM HEPES pH 7.4, 150 mM NaCl, 0.05% Tween-20], 1 g/L BSA) for 5 minutes. […] Data was fitted with 1:1 Langmuir equation and off-rate values were reported.

[2] = target: T2, huCD33-R69 stably expressed on Jurkat cells (human, UniProt P20138 18-364); assay: FACS on cells;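 note: fixed Jurkat cells bearing either CD33 variant, barcoded by dye, exposed to myc-tagged scFv periplasmic extracts, detected with anti-myc PE antibody and read by flow cytometry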
T2 construct: whole, on cells; >200,000 receptors per cell; also called CD33 WT; CD33^ARG69
T2 sequence (P20138 18-364): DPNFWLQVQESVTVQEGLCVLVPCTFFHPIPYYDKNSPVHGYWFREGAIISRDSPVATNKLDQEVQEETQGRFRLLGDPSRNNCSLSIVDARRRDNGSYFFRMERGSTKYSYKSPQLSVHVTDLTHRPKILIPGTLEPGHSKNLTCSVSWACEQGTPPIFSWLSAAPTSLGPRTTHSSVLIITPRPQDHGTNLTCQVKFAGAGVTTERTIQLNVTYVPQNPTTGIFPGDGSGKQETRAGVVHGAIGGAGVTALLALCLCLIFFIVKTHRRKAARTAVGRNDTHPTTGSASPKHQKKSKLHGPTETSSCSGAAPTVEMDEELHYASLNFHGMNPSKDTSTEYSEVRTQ
Description: (§2) Jurkat cells were engineered to stably express either the huCD33-R69 or huCD33-G69 variant at >200,000 receptors per cell. Parental, huCD33-R69, and huCD33-G69 Jurkat cell lines were stained with differing levels of CellTrace Violet Cell Proliferation Kit (ThermoFisher, cat. #C34557) to barcode each cell line. Barcoded Jurkat cell lines were fixed with paraformaldehyde and incubated with myc-labeled scFv periplasmic extracts and a secondary anti-myc PE-conjugated monoclonal antibody. Appropriate positive and negative controls were used. Stained cells were analyzed by flow cytometry (CytoFLEX, Beckman Coulter, Inc.) and binding was assessed by change in PE mean fluorescence intensity (MFI) of the barcoded cell populations.

[3] = target: T3, huCD33-G69 stably expressed on Jurkat cells (human, UniProt P20138 18-364); assay: FACS on cells;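 note: fixed Jurkat cells bearing either CD33 variant, barcoded by dye, exposed to myc-tagged scFv periplasmic extracts, detected with anti-myc PE antibody and read by flow cytometry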
T3 construct: whole, on cells; >200,000 receptors per cell; also called CD33 Mutant; CD33 R69G
T3 sequence (P20138 18-364 R69G): as the sequence (P20138 18-364) above, with R52G counted along it
Description: as §2

huFLT3-T227-His = target: T4, huFLT3-T227-His (human, UniProt P36888 27-543); assay: BLI
T4 construct: extracellular domain; also called FLT3 WT
Description: as §1

huFLT3-M227-Fc = target: T5, huFLT3-M227-Fc (human, UniProt P36888 27-543); assay: BLI
T5 construct: extracellular domain; also called FLT3 Mutant
Description: as §1

[4] = target: T6, huFLT3-T227 stably expressed on Ramos cells (human, UniProt P36888 27-993); assay: FACS on cells
T6 construct: whole, on cells; also called FLT3 WT

[5] = target: T7, huFLT3-M227 stably expressed on Ramos cells (human, UniProt P36888 27-993); assay: FACS on cells
T7 construct: whole, on cells; also called FLT3 Mutant

T1 sequence (P20138 18-259 R69G): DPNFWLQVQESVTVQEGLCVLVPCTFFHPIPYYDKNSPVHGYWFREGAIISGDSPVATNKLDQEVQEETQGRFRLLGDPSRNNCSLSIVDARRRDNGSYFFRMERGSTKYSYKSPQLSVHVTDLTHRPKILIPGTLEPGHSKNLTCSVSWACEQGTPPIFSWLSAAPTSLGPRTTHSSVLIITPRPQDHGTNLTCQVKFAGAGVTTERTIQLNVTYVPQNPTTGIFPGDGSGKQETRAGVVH

binding result [1] | geometric mean MFI fold change over Jurkat parental [2] | geometric mean MFI fold change over Jurkat parental [3] | binding result (huFLT3-T227-His) | binding result (huFLT3-M227-Fc) | FACS geometric mean fold change over Jurkat parental [4] | FACS geometric mean fold change over Jurkat parental [5] | Binder
no binding | 2 to 10 fold | < 2 fold | – | – | – | – | Polypeptide No. 18 (scFv, V domains shown, scFv) VH: QVQLVQSGAEVKKPGASVKVSCKASGYTFTDHYMHWVRQAPGQGLEWMGWINPNSGGTNYAQKFQGRVTMTRDTSTSTVYMELSSLRSEDTAVYYCAKDKFGDEGSGWYGDFQHWGQGTLVTVSS VL: not shown
no binding | 2 to 10 fold | < 2 fold | – | – | – | – | Polypeptide No. 12 (scFv, V domains shown, scFv) VH: EVQLLESGGGLVQPGGSLRLSCAASGFTFSSHWMSWVRQAPGKGLEWVSAISGSGGSTYYADSVKGRFTISRDNSKNTLYLQMNSLRAEDTAVYYCARDDNSGSQADWGQGTLVTVSS VL: DIQMTQSPSSLSASVGDRVTITCQASQDIDNYLNWYQQKPGKAPKLLIYDASNLETGVPSRFSGSGSGTDFTLTISSLQPEDFATYYCQQSYSTPLTFGGGTKLEIKR
no binding | 2 to 10 fold | < 2 fold | – | – | – | – | Polypeptide No. 21 (scFv, V domains shown, scFv) VH: not shown VL: DIQMTQSPSSLSASVGDRVTITCQASQDISNNLNWYQQKPGKAPKLLIYAASGLQSGVPSRFSGSGSGTDFTLTISSLQPEDFATYYCQQANSFPLTFGGGTKVEIKR
no binding | 2 to 10 fold | < 2 fold | – | – | – | – | Polypeptide No. 17 (scFv, V domains shown, scFv) VH: not shown VL: DIQMTQSPSSLSASVGDRVTITCRASQGISNNLNWYQQKPGKAPKLLIYESSTLETGVPSRFSGSGSGTDFTLTISSLQPEDFATYYCQQSYSAPLTFGGGTKVEIKR
no binding | 2 to 10 fold | < 2 fold | – | – | – | – | Polypeptide No. 23 (scFv, V domains shown, scFv) VH: QVQLVQSGAEVKKPGASVKVSCKASGYPFTAHYIHWVRQAPGQGLEWMGWINPNSGGTNYAQKFQGRVTMTRDTSTSTVYMELSSLRSEDTAVYYCARDVEMATIGAYWYFDLWGRGTLVTVSS VL: DIQMTQSPSSLSASVGDRVTITCRASQGINNWLAWYQQKPGKAPKLLIYDASNLETGVPSRFSGSGSGTDFTLTISSLQPEDFATYYCQQANSFPPTFGQGTKLEIKR
no binding | > 30 fold | < 2 fold | – | – | – | – | Polypeptide No. 19 (scFv, V domains shown, scFv) VH: EVQLLESGGGLVQPGGSLRLSCAASGFTFSSYWMHWVRQAPGKGLEWVSGFSGSARTYYADSVKGRFTISRDNSKNTLYLQMNSLRAEDTAVYYCAREWSGFDYWGQGTLVTVSS VL: DIQMTQSPSSLSASVGDRVTITCRASQNIGPWLAWYQQKPGKAPKLLIYDAKDLHPGVPSRFSGSGSGTDFTLTISSLQPEDFATYYCQQANTFPMTFGQGTRLEIKR
– | – | – | binds | binds | – | – | Polypeptide No. 217 (scFv, V domains shown, scFv) VH: QVQLVQSGAEVKKPGSSVKVSCKASGYTFTTFYLHWVRQAPGQGLEWIGGIIPMSGTANYAQKFQGRVTITADESTSTAYMELSSLRSEDTAVYYCASGGENGMDVWGQGTTVTVSS VL: not shown
– | – | – | no binding | – | < 2 fold | – | Polypeptide No. 203 (scFv, V domains shown, scFv) VH: QVQLVQSGAEVKKPGSSVKVSCKASGYTLTELSMHWVRQAPGQGLEWMGRIIPISGTANYAQKFQGRVTITADESTSTAYMELSSLRSEDTAVYYCARAARYCSSTSCYWRDGMDVWGQGTTVTVSS VL: not shown
no binding | 10 to 30 fold | < 2 fold | – | – | – | – | Polypeptide No. 13 (scFv, V domains shown, scFv) VH: QVQLVQSGAEVKKPGASVKVSCKASGYSFTGYYMHWVRQAPGQGLEWMGWINPNSGGTYFAQNFQGRVTMTRDTSTSTVYMELSSLRSEDTAVYYCVKDRGDRVVTSYLDYWGQGTLVTVSS VL: DIQMTQSPSSLSASVGDRVTITCRASQGIRNWLAWYQQKPGKAPKLLIYAASSLQSGVPSRFSGSGSGTDFTLTISSLQPEDFATYYCQQSYRTPYTFGQGTKLEIKR
– | – | – | binds | binds | – | – | Polypeptide No. 209 (scFv, V domains shown, scFv) VH: EVQLLESGGGLVQPGGSLRLSCAASGFAFSSYVLHWVRQAPGKGLEWVAGIWVDGHNKDYADSVKGRFTISRDNSKNTLYLQMNSLRAEDTAVYYCAREFGAAGSFQHWGQGTLVTVSS VL: DIQMTQSPSSLSASVGDRVTITCRASQSISTWLAWYQQKPGKAPKLLIYDASKLETGVPSRFSGSGSGTDFTLTISSLQPEDFATYYCQQSYTTPYTFGQGTKVEIKR
no binding | > 30 fold | < 2 fold | – | – | – | – | Polypeptide No. 1 (scFv, V domains shown, scFv) VH: QVQLVQSGAEVKKPGASVKVSCKASGYSFTGYYIHWVRQAPGQGLEWMGWINPNSGGTNYAQKFQGRVTMTRDTSTSTVYMELSSLRSEDTAVYYCARDQWDGYNSGYFDYWGQGTLVTVSS VL: DIQMTQSPSSLSASVGDRVTITCRASQTINDWLAWYQQKPGKAPKLLIYSASTLHSGVPSRFSGSGSGTDFTLTISSLQPEDFATYYCQQAYSTPWTFGQGTKVEIKR
no binding | > 30 fold | < 2 fold | – | – | – | – | Polypeptide No. 25 (scFv, V domains shown, scFv) VH: QVQLVQSGAEVKKPGASVKVSCKASGYTFTGYYMHWVRQAPGQGLEWMGRINPNGGSTTYAQKFQGRVTMTRDTSTSTVYMELSSLRSEDTAVYYCARDDFYYYYLDFWGKGTTVTVSS VL: DIQMTQSPSSLSASVGDRVTITCRASQSINDWLAWYQQKPGKAPKLLIYAASNLQSGVPSRFSGSGSGTDFTLTISSLQPEDFATYYCQQGYSTPPTFGQGTKVEIKR
no binding | 2 to 10 fold | < 2 fold | – | – | – | – | Polypeptide No. 22 (scFv, V domains shown, scFv) VH: QVQLVQSGAEVKKPGASVKVSCKASGYTFTDYYIHWVRQAPGQGLEWMGWINPNSGGTNYAQEFQGRVTMTRDTSTSTVYMELSSLRSEDTAVYYCARDHRIAVAGSYFDYWGQGTLVTVSS VL: DIQMTQSPSSLSASVGDRVTITCRASRSIRTWLAWYQQKPGKAPKLLIYAASSLQTGVPSRFSGSGSGTDFTLTISSLQPEDFATYYCQQSYSTPYTFGQGTKLEIKR
no binding | 2 to 10 fold | < 2 fold | – | – | – | – | Polypeptide No. 15 (scFv, V domains shown, scFv) VH: EVQLLESGGGLVQPGGSLRLSCAASGFTFSIYEIHWVRQAPGKGLEWVSAISGSGGSTYYADSVKGRFTISRDNSKNTLYLQMNSLRAEDTAVYYCARSYCGGDCWDYYYYYGMDVWGQGTTVTVSS VL: not shown
– | – | – | binds | binds | – | – | Polypeptide No. 216 (scFv, V domains shown, scFv) VH: QVQLVQSGAEVKKPGSSVKVSCKASGNTFTMYYMHWVRQAPGQGLEWVGAIIPISGTVIYARKFQGRVTITADESTSTAYMELSSLRSEDTAVYYCARLSGGRMYDAFDIWGQGTTVTVSS VL: not shown
– | – | – | no binding | – | < 2 fold | 2 to 10 fold | Polypeptide No. 202 (scFv, V domains shown, scFv) VH: QVQLVQSGAEVKKPGASVKVSCKASGYTFTNYYMHWVRQAPGQGLEWMGVINPSGGSTNYAQKFQGRVTMTRDTSTSTVYMELSSLRSEDTAVYYCARAGVGAFHIWGQGTMVTVSS VL: DIQMTQSPSSLSASVGDRVTITCRASQSIRSWLAWYQQKPGKAPKLLIYDASNLETGVPSRFSGSGSGTDFTLTISSLQPEDFATYYCQQIYSLPRTFGQGTKVEIKR
no binding | 2 to 10 fold | < 2 fold | – | – | – | – | Polypeptide No. 16 (scFv, V domains shown, scFv) VH: EVQLVESGGGLVKPGGSLRLSCAASGFTFSDNSMNWVRQAPGKGLEWVSYISSSGSTIYYADSVKGRFTISRDDSKNTLYLQMNSLKTEDTAVYYCARGRASSWPNWFDPWGQGTLVTVSS VL: DIVMTQSPLSLPVTPGEPASISCRSSQSLLHSNGYNYLDWYLQKPGQSPQLLIYSASNLQSGVPDRFSGSGSGTDFTLKISRVEAEDVGVYYCMQALQTPPTFGQGTKLEIKR
– | – | – | no binding | – | < 2 fold | 2 to 10 fold | Polypeptide No. 221 (scFv, V domains shown, scFv) VH: QVQLVQSGAEVKKPGASVKVSCKASGYTFTDNYMHWVRQAPGQGLEWMGWMTPDSNNTGFAQNFQGRVTMTRDTSTSTVYMELSSLRSEDTAVYYCALGDGPFGMDVWGQGTTVTVSS VL: DIVMTQSPLSLPVTPGEPASISCRSSQSLLHSNGYNYLDWYLQKPGQSPQLLIYGASYLQSGVPDRFSGSGSGTDFTLKISRVEAEDVGVYYCMQALQGPITFGQGTKVEIKR
no binding | > 30 fold | < 2 fold | – | – | – | – | Polypeptide No. 14 (scFv, V domains shown, scFv) VH: QVQLVQSGAEVKKPGASVKVSCKASGYTFTGYYMHWVRQAPGQGLEWMGIINPSGGSTSYAQKFQGRVTMTRDTSTSTVYMELSSLRSEDTAVYYCARAAPYYYDSSGYYSGGYYFDYWGQGTLVTVSS VL: not shown
